Data on one molecule can be found in PMC11601375 (bioRxiv, 2024).

This assay concerns the target T1, vacuolar Qa-SNARE Vam3 (yeast, UniProt Q12241 1-283).
T1 sequence: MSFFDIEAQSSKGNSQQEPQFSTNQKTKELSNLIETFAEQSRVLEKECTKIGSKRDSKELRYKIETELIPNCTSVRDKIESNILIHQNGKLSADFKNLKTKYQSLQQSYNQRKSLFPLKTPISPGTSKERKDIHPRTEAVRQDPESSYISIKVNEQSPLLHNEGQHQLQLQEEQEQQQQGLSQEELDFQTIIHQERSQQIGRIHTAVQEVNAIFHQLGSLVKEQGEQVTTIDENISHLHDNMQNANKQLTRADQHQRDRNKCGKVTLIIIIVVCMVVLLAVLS
Briefly: co-IP.

B1: vacuolar Qb-SNARE Vti1 (natural protein)
chain: MSSLLISYESDFKTTLEQAKASLAEAPSQPLSQRNTTLKHVEQQQDELFDLLDQMDVEVNNSIGDASERATYKAKLREWKKTIQSDIKRPLQSLVDSGDRDRLFGDLNASNIDDDQRQQLLSNHAILQKSGDRLKDASRIANETEGIGSQIMMDLRSQRETLENARQTLFQADSYVDKSIKTLKTMTRRLVANKFISYAIIAVLILLILLVLFSKFK
In the case of B1, the binding result is “binds”.
